Numbering of substitutions follows the chain as printed. Numbers in names are those of the source.
B1: WNanoKAZ-V90I: single amino acid-substituted WNanoKAZ mutant, valine 90 back to isoleucine; SEQ ID NO: 8 (protein)
chain: FTLADFVGDWQQTAGYNQDQVLEQGGLSSLFQALGVSVTPIQKVVLSGENGLKADIHVIIPYEGLSGFQMGLIEMIFKVVYPVDDHHFKIILHYGTLVIDGVTPNMIDYFGRPYEGIAVFDGKKITVTGTLWNGNKIIDERLINPDGSLLFRVTINGVTGWRLCERILA
B2: WNanoKAZ-E115P: WNanoKAZ with substitution of proline for glutamic acid at position 115; SEQ ID NO: 10 (protein)
chain: B1 chain with I90V, E115P
B3: WNanoKAZ-K124Q: single amino acid-substituted WNanoKAZ mutant K124Q; SEQ ID NO: 12 (protein)
chain: B1 chain with I90V, K124Q
B4: WNanoKAZ-I138Y: single amino acid-substituted WNanoKAZ mutant I138Y; SEQ ID NO: 14 (protein)
chain: B1 chain with I90V, I138Y

Tests used:
[1] = test system: CHO-K1 cells; test: Luminescence activity of WNanoKAZ mutants expressed by secretory expression vectors in animal culture cells (Example 13); format: cell-based, Chinese hamster; conditions: pcDNA3-GLsp- secretory vector, coelenterazine substrate
Method: Chinese hamster ovary cell line CHO-K1 was cultured in Ham's F-12 medium (manufactured by Wako Pure Chemical Industries, Ltd.) supplemented with 10% (v/v) fetal bovine serum (manufactured by Biowest Inc.). The CHO-K1 cells were seeded in a 6-well plate in 1×10^5 cells/well/2 mL medium (n=2) and cultured in an incubator at 37° C. in 5% (v/v) CO2. After 24 hours, the purified recombinant plasmid was transfected to CHO-K1 cells using a FuGene HD transfection kit (manufactured by Promega Corp.) and the cells were used for subsequent experiment. Specifically, 1 μg of the recombinant plasmid, 0.1 μg of the internal standard vector pGL4.13 [Luc2/sv40] and 3 μL of FuGene HD were added to 100 μL of the medium and allowed to stand at room temperature for 15 minutes. Subsequently, 100 μL of the DNA-FuGene complex solution was added to the cells in the 6-well plate. After incubation for 46 hours, the culture medium was collected. On the other hand, the KAZ mutant expressed in the cells was washed 3 times with 3 mL of 1×PBS, then suspended in 1 mL of 1×PBS and disrupted by sonication on ice. The resultant cell extract of WNanoKAZ was used as the enzyme solution.
After adding 5 μL of the culture medium and cell extract obtained in EXAMPLE 5 to 100 μL of 30 mM Tris-HCl (pH 7.6)-10 mM EDTA (Wako Pure Chemical Industries, Ltd.) containing 1 μg of coelenterazine (manufactured by JNC Corp.), a luminescence reaction was started. Luminescence activity was measured for 60 seconds using a luminometer (manufactured by Atto Inc.: AB2200). The maximum intensity of luminescence (Imax) was given as a percentage (%).
The recombinant plasmid obtained in EXAMPLE 12 or 4 was purified in a manner similar to EXAMPLE 5 and dissolved in sterile water. The firefly luciferase vector (pGL4.13 [Luc2/sv40]: manufactured by Promega Corp.) was similarly prepared and used as an internal standard.
Culture medium containing two amino acid-substituted KAZ mutants and three amino acid-substituted KAZ mutants and cell extracts of the KAZ mutants as the enzyme solutions were prepared by the same procedure as in EXAMPLE 9.
The resultant culture medium and cell extracts were used to measure luminescence activity as in EXAMPLE 6.

[2] = Luminescence activity of ZZ-fused WNanoKAZ mutants in crude enzyme solution (Example 10); format: biochemical; conditions: coelenterazine substrate; for Relative luminescence activity (Imax): ZZ-fused, pCold-ZZ-P- vector in E. coli, KAZ = 1.0; for fold higher activity than native KAZ / fold higher activity than the relative activity 7.4 of dnKAZ: Imax
Method: In order to express ZZ-fused KAZ mutants in E. coli, the recombinant plasmid produced in EXAMPLE 8 and pCold-ZZ-P-WNanoKAZ produced in EXAMPLE 1 were used. The crude enzyme solution was prepared in a manner similar to EXAMPLE 2, using the E. coli BL21 strain (Novagen, Madison, Wis.) as a host cell. Then, 5 μL of the crude enzyme solution obtained was subjected to SDS-PAGE analysis to confirm the protein expression in all mutants. In FIG. 1, M and 1 to 8 represent as follows. M: molecular weight size markers; 1: ZZ-P-KAZ; 2: ZZ-P-WNanoKAZ; 3: ZZ-P-WNanoKAZ-V90I; 4: ZZ-P-WNanoKAZ-E115P; 5: ZZ-P-WNanoKAZ-K124Q; 6: ZZ-P-WNanoKAZ-I138Y; 7: ZZ-P-WNanoKAZ-R166N; 8: ZZ-P-dnKAZ. It was confirmed from FIG. 1 that all mutants were expressed.
(§1) DTT was added to the crude enzyme solution obtained in EXAMPLE 9 at a final concentration of 1 mM, and then allowed to stand in an ice-water bath over 8 hours or more. After 1 μL of the crude enzyme solution was added to 100 μL of 30 mM Tris-HCl (pH 7.6)-10 mM EDTA (Wako Pure Chemical Industries, Ltd.) containing 1 μg of coelenterazine (manufactured by JNC Corp.), a luminescence reaction was started. Luminescence activity was measured for 60 seconds using a luminometer (manufactured by Atto Inc.: AB2200). The maximum intensity of luminescence (Imax) was given as a relative luminescence activity (rlu).

[3] = Substrate specificity of WNanoKAZ mutants, crude enzyme solution (Example 11); format: biochemical; conditions: for Relative luminescence activity, 6h-CTZ, Imax / Relative luminescence activity, 6h-CTZ, Int.: substrate 6h-CTZ; for Relative luminescence activity, 6h-f-CTZ, Imax / Relative luminescence activity, 6h-f-CTZ, Int.: substrate 6h-f-CTZ; for Relative luminescence activity, CTZ, Imax / Relative luminescence activity, CTZ, Int.: substrate CTZ
Method: as §1
Each of the coelenterazine analogues used for substrate specificity studies was synthesized by the methods described in publications. Specifically, bis-coelenterazine was synthesized by the method described in Nakamura et al. (1997) Tetrahedron Lett. 38: 6405-6406, furimazine by the method described in Hall et al. (2012) ACS Chem. Biol. […], and, 6h-coelenterazine, f-coelenterazine and 6h-f-coelenterazine by the method described in Inouye et al (2013) Biochem. Biophys. Res. Commun. 437: 23-28. Luminescence activity was measured by the same method as in EXAMPLE 10, using the crude enzyme solution obtained in EXAMPLE 10, in which coelenterazine or its analogue was used as the luminescence substrate.

Molecule | Relative luminescence activity (%, Imax) Cell extracts [1] [%] | Relative luminescence activity (%, Imax) Culture medium [1] [%] | Relative luminescence activity (Imax) [2] | fold higher activity than native KAZ [2] [fold] | fold higher activity than the relative activity 7.4 of dnKAZ [2] [fold] | Relative luminescence activity, Furimazine, Imax [3] | Relative luminescence activity, bis-CTZ, Imax [3] | Relative luminescence activity, f-CTZ, Imax [3] | Relative luminescence activity, h-CTZ, Imax [3] | Relative luminescence activity, Furimazine, Int. [3] | Relative luminescence activity, bis-CTZ, Int. [3] | Relative luminescence activity, f-CTZ, Int. [3] | Relative luminescence activity, h-CTZ, Int. [3] | fold higher activity than the other coelenterazine analogues when coelenterazine was used as the substrate [3] [fold] | Relative luminescence activity, 6h-CTZ, Imax [3] | Relative luminescence activity, 6h-CTZ, Int. [3] | Relative luminescence activity, 6h-f-CTZ, Imax [3] | Relative luminescence activity, 6h-f-CTZ, Int. [3] | Relative luminescence activity, CTZ, Imax [3] | Relative luminescence activity, CTZ, Int. [3] | also measured
B1 | 15 | 0.03 | 34 | 34 | 4.6 | 17 | 23 | 31 | 41 | 15 | 21 | 22 | 22 | 4.6 | 5.1 | 5.6 | 23 | 23 | 34 | 35 | –
B2 | 12 | <0.01 | 31 | 31 | 4.2 | 13 | 18 | 22 | 27 | 11 | 19 | 14 | 17 | 4.2 | 5.9 | 6.1 | 14 | 11 | 31 | 26 | –
B3 | 21 | 0.03 | 34 | 34 | 4.6 | 18 | 36 | 64 | 70 | 11 | 33 | 40 | 41 | 4.6 | 6.2 | 6.1 | 40 | 35 | 34 | 32 | –
B4 | 10 | <0.01 | 8.5 | 8.5 | 1.1 | 11 | 18 | 29 | 35 | 8.9 | 17 | 18 | 22 | 1.1 | 1.7 | 2.8 | 17 | 10 | 8.5 | 8.9 | activity compared with dnKAZ (in words) [2]: decreased to the same level as that of dnKAZ
